From article PMC5458078, “Global mapping of CARM1 substrates defines enzyme specificity and substrate recognition” (Nature Communications, 2017)

Key:
HEK293T cells = assay: Western blot of FLAG-tagged TET2 with ADMA antibodies, wild type vs CARM1 KO; type: cell-based
Protocol: TET2, methylcytosine dioxygenase with a prominent role in DNA demethylation frequently mutated in various human cancers, was identified among novel CARM1 substrates. To assure its correct identification, we probed FLAG-tagged TET2 with ADMA antibody in wild type and CARM1 KO HEK293T cells (Fig. 2c).
(§1) Cells were collected by trypsinization, washed with Dulbecco's phosphate buffer saline (Life Technologies, Carlsbad, CA) and lysed by suspension in lysis buffer (50 mM Tris-HCl pH 8.0, 150 mM NaCl, 10% glycerol, 0.5% Triton X-100 and 1 × protease inhibitor cocktail (Sigma-Aldrich)). After brief sonication followed by centrifugation, total protein was quantified using the BioRad Protein Assay (BioRad, Hercules, CA), and 20 μg protein was resolved by SDS–PAGE. Proteins were transferred to a nitrocellulose membrane for 1.5 h at 350 mA. Membranes were blocked with 5% nonfat milk at room temperature for 1 h and incubated overnight with diluted primary antibody at 4 °C. Membranes were then washed and incubated with HRP-conjugated secondary antibody for 1 h at room temperature. Signal was visualized by enhanced chemiluminescence reagents (Thermo Scientific, Rockford, IL) and X-ray film exposure followed by scanning and digitalization. Me-PABP1 and PABP1 antibodies, me-BAF155 antibody[20] and me-MED12 antibody[30] were generated previously in the Xu lab. […]

[1] = system: BAF155, MED12, PABP1, NCOA3 and TET2; assay: Co-immunoprecipitation of BAF155, MED12, PABP1, NCOA3 and TET2 with FLAG-tagged CARM1, western blot; type: cell-based; details: FLAG-tagged construct transiently transfected in HEK293T CARM1 KO cells; anti-FLAG IP
Excerpt: The structure of the N-terminal domain of CARM1 (residues 28–140) resembles those of the EVH1 domains, a subfamily of PH domains that bind proline-rich sequences. With our discovery that CARM1 substrates contain proline-rich motifs, we posited that the protein's N-terminal domain may be required for substrate recognition. To test this hypothesis, we generated three CARM1 constructs: one full-length (CARM1 FL) and two N-terminal truncations CARM1 28–608 and CARM1 140–608 (Fig. 3a). […] We transiently transfected the three FLAG-tagged CARM1 fusion constructs in HEK293T CARM1 KO cells. CARM1 was immunoprecipitated from all three cell lines using anti-FLAG M2 resin, and four known CARM1 substrates/interactors (that is, BAF155 (ref. [20]), MED12 (ref. [30]), PABP1 (ref. [36]) and NCOA3 (ref. [19])) and newly identified TET2 were detected by western blotting. […] To globally assess the magnitude of reduction in CARM1–substrate interactions induced by the loss of the EVH1 domain, we visualized overall protein changes in CARM1 immunoprecipitates by western blotting using the ADMA antibody (Fig. 3c).
as §1, with “digitalization.” for “digitalization. Me-PABP1 and PABP1 antibodies, me-BAF155 antibody[20] and me-MED12 antibody[30] were generated previously in the Xu lab.”

HEK293T CARM1 KO cells [2] = assay: Total ADMA levels after transient transfection, western blot; type: cell-based; details: transient expression in HEK293T CARM1 KO cells
Protocol: (§2) Next, we transiently transfected FL and the two aforementioned CARM1 truncations in HEK293T CARM1 KO cells and measured substrate methylation by western blotting with ADMA antibodies.
as §1

HEK293T CARM1 KO cells [3] = assay: Rescue of endogenous BAF155 and MED12 methylation, transient transfection, western blot; type: cell-based; details: transient expression in HEK293T CARM1 KO cells
Protocol: as §2
Cells were collected by trypsinization, washed with Dulbecco's phosphate buffer saline (Life Technologies, Carlsbad, CA) and lysed by suspension in lysis buffer (50 mM Tris-HCl pH 8.0, 150 mM NaCl, 10% glycerol, 0.5% Triton X-100 and 1 × protease inhibitor cocktail (Sigma-Aldrich)). After brief sonication followed by centrifugation, total protein was quantified using the BioRad Protein Assay (BioRad, Hercules, CA), and 20 μg protein was resolved by SDS–PAGE. Proteins were transferred to a nitrocellulose membrane for 1.5 h at 350 mA. Membranes were blocked with 5% nonfat milk at room temperature for 1 h and incubated overnight with diluted primary antibody at 4 °C. Membranes were then washed and incubated with HRP-conjugated secondary antibody for 1 h at room temperature. Signal was visualized by enhanced chemiluminescence reagents (Thermo Scientific, Rockford, IL) and X-ray film exposure followed by scanning and digitalization. Me-PABP1 and PABP1 antibodies, me-BAF155 antibody[20] and me-MED12 antibody[30] were generated previously in the Xu lab. FLAG antibody (catalogue #F7425) was purchased from Sigma and used at a dilution of 1:5,000; BAF155 antibody (sc-10756) was purchased from Santa Cruz and used at a dilution of 1:1,000; MED12 antibody (ab70842) was purchased from Abcam (Cambridge, MA) and used at 1:1,000 dilution.

[4] = system: recombinant full-length BAF155 protein; assay: In vitro methylation of full-length FLAG-BAF155 by recombinant CARM1 proteins, autoradiography; type: biochemical; details: 3H-SAM, 50 mM Tris-HCl pH 8.0, 100 mM NaCl, 0.5 mM EDTA, 1–4 h, 30 °C
Protocol: The FL and N-terminal domain-deleted version of human CARM1 cDNAs, and other PRMT FL cDNAs were cloned into pFN21K Halo Tag CMV Flexi mammalian expression vector (Promega, Madison, WI) using the unique Sgfl and Pmel site[55]. To express the protein, DNA constructs were transiently transfected into HEK293T CARM1 KO cells in 15 cm dishes using transIT-LT1 reagent (Mirus Bio, Madison, WI) according to the manufacturer's protocol. Proteins were allowed to express for 48 h. Cell pellets were then collected and lysed in lysis buffer (50 mM HEPES, pH 7.5, 150 mM NaCl, 0.005% NP-40, 0.5 mM EDTA, supplemented with 1 × protease inhibitor cocktail before use). The cells were sonicated on ice using a Branson Sonifier 450 with a microtip at 35% amplitude (10 s on, 30 s off, 6 cycles). […] The resin was centrifuged at 3,000 r.p.m. for 5 min, and the supernatant containing the cleaved protein was collected and protein concentration was determined using the Bradford assay (Thermo Scientific, Rockford, IL). Protein purity was assessed by running SDS–PAGE and Coomassie Blue staining.
CMX-Flag-BAF155 construct was generated by subcloning a PCR-amplified Flag-BAF155 fragment into the CMX-expression vector. […] Protein concentration was determined using Bradford assay and protein purity was assessed by SDS–PAGE and Coomassie Blue staining. […]

TET2: FLAG-tagged TET2, methylcytosine dioxygenase
ADMA modification of TET2 in the absence of CARM1 (HEK293T cells): complete disappearance of ADMA modification on TET2

B1: CARM1 28–608: CARM1 28–608 lacks the first, unstructured 28 residues (protein)
chain: TVSVFPGARLLTIGDANGEIQRHAEQQALRLEVRAGPDSAGIALYSHEDVCVFKCSVSRETECSRVGKQSFIITLGCNSVLIQFATPNDFCSFYNILKTCRGHTLERSVFSERTEESSAVQYFQFYGYLSQQQNMMQDYVRTGTYQRAILQNHTDFKDKIVLDVGCGSGILSFFAAQAGARKIYAVEASTMAQHAEVLVKSNNLTDRIVVIPGKVEEVSLPEQVDIIISEPMGYMLFNERMLESYLHAKKYLKPSGNMFPTIGDVHLAPFTDEQLYMEQFTKANFWYQPSFHGVDLSALRGAAVDEYFRQPVVDTFDIRILMAKSVKYTVNFLEAKEGDLHRIEIPFKFHMLHSGLVHGLAFWFDVAFIGSIMTVWLSTAPTEPLTHWYQVRCLFQSPLFAKAGDTLSGTCLLIANKRQSYDISIVAQVDQTGSKSSNLLDLKNPFFRYTGTTPSPPPGSHYTSPSENMWNTGSTYNLSSGMAVAGMPTAYDLSSVIASGSSVGHNNLIPLANTGIVNHTHSRMGSIMSTGIVQGSSGAQGSGGGSTSAHYAVNSQFTMGGPAISMASPMSIPTNTMHYGS
modifications: left off: FLAG, end not stated, kept
notes: CARM1 28–608 lacks the first, unstructured 28 residues
Co-precipitation of BAF155, MED12, PABP1, NCOA3 and TET2 [1]: all five proteins were co-precipitated
Total levels of ADMA modification (HEK293T CARM1 KO cells [2]): recovered to the level of parental cells
Methylation of endogenous BAF155 and MED12 (HEK293T CARM1 KO cells [3]): methylation of endogenous BAF155 and MED12 was restored
Methylation of full-length BAF155 [4]: methylated recombinant full-length BAF155 protein

B2: CARM1 FL: full-length CARM1, contained 608 residues (protein)
chain: MAAAAAAVGPGAGGAGSAVPGGAGPCATVSVFPGARLLTIGDANGEIQRHAEQQALRLEVRAGPDSAGIALYSHEDVCVFKCSVSRETECSRVGKQSFIITLGCNSVLIQFATPNDFCSFYNILKTCRGHTLERSVFSERTEESSAVQYFQFYGYLSQQQNMMQDYVRTGTYQRAILQNHTDFKDKIVLDVGCGSGILSFFAAQAGARKIYAVEASTMAQHAEVLVKSNNLTDRIVVIPGKVEEVSLPEQVDIIISEPMGYMLFNERMLESYLHAKKYLKPSGNMFPTIGDVHLAPFTDEQLYMEQFTKANFWYQPSFHGVDLSALRGAAVDEYFRQPVVDTFDIRILMAKSVKYTVNFLEAKEGDLHRIEIPFKFHMLHSGLVHGLAFWFDVAFIGSIMTVWLSTAPTEPLTHWYQVRCLFQSPLFAKAGDTLSGTCLLIANKRQSYDISIVAQVDQTGSKSSNLLDLKNPFFRYTGTTPSPPPGSHYTSPSENMWNTGSTYNLSSGMAVAGMPTAYDLSSVIASGSSVGHNNLIPLANTGIVNHTHSRMGSIMSTGIVQGSSGAQGSGGGSTSAHYAVNSQFTMGGPAISMASPMSIPTNTMHYGS
modifications: left off: FLAG, end not stated, kept
notes: full-length CARM1, contained 608 residues
Co-precipitation of BAF155, MED12, PABP1, NCOA3 and TET2 [1]: all five proteins were co-precipitated
Total levels of ADMA modification (HEK293T CARM1 KO cells [2]): recovered to the level of parental cells
Methylation of endogenous BAF155 and MED12 (HEK293T CARM1 KO cells [3]): methylation of endogenous BAF155 and MED12 was restored
Methylation of full-length BAF155 [4]: methylated recombinant full-length BAF155 protein
